Results reported in publication PMC5551578 (The Journal of Experimental Medicine, 2017).

biological target: H7N9 HA (A/Shanghai/1/2013) (Influenza A virus A/Shanghai/1/2013 …, strain)

Binder | binding result
H7-Ab5 (antibody, V domains shown) VH: EVQLVESGAEMRKPGSSVKVSCKASGGTFNTYGISWVRQAPGQGLEWMGGIIPMFGTENHAQKFQGRVTITADKSTSIAYMELSSLTSEDTAVYYCARAPVVGSRNVYYYHGLDVWGQGTTVTVSS VL: SYELTQPPSVSVSPGQTARITCSGDALPKRYAFWYQQKPGQAPVLVIYKDTERPSGIPERFSGSRSGTTVTLTISGVQAEDEGDYYCQSADSSDPCLFGGGTKLTVL | binds
H7-Ab4 (antibody, V domains shown) VH: EVQLVESGAEVKKPGSSVKVSCKASGGTFSSHGINWVRQAPGQRLEWMGGINPISGTPHYAQKFQGRVTITADESTTTSYMELSSLRSEDTAVYYCARIHRAGLEANYWGQGTLVTVSS VL: not shown | binds
H7-Ab1 (antibody, V domains shown) VH: EVQLVQSGAEVKKPGASVKVSCKTSYAMHWVRQAPGQRLEWMGWINAGNGYTKYSPKFQGRVTFTWDTSASTAYMELNSLRSEDTAVYYCAHGSGSYLNWFDPWGQGTLVTVSS VL: QSVLTQPASVSGSPGQSITISCTGTSSDVGGYNYVSWYQQHPGKAPKLMIYEVSNRPSGVSNRFSGSKSGNTASLTISGLQAEDEVDYYCTSYTSSSTLVAFGRGTKLTVL | binds
H7-Ab3 (antibody, V domains shown) VH: EVQLVESGAEVKKPGSSVKVSCKTSGGTFNIYAINWVRQAPGQGLEWMGMIIPIFGSPKTAREFQDRLTIDADTSTSTAYMELSNLTSEDTATYFCSRVADDYDFWSPNKFWGQGTLVTVSS VL: DIQLTQSPSTLSASVGDTVTITCRASQSVNSWLAWYQQKPGKAPKLLIYKTFNLETGVPSRFSATGSGTEFTLTISRLQPDDFATYYCQQYNSNSHFGQGTKVEIK | binds

biological target: H1N1 HA (A/California/04/2009) (Influenza A virus A/California/04/2009 …, UniProt C3W5S1, strain)

Binder | binding result
H1-Ab61 (antibody, V domains shown) VH: EVQLLESGAEVKKPGESLKISCKTSGYTFPRYWVGWVRQMPGKGLEWMGFIYPGDATTRYSPSFQGQVTISADKSINTAYLHWSSLKASDTAVYFCARHPGDKSFYYYGLDVWGQGTTVTVSS VL: AIRMTQSPSTLSASVGDRVTITCRASQSIRSWLAWYQQKPGKAPKLLISKASSLQSGVPSRFSGTGSGTEFTLTISSLQPDDFATYYCQQYNSDSITFGQGTRLEIK | binds
H1-Ab15 (antibody, V domains shown) VH: EVQLVESGAEVKKPGSSVTVSCKASGNIFNSYTVSWVRQVPGQGLEWVARVIPTIGMSNYAPKLQGRVTVTADRSTNTAYMEVTSLRSEDTAVYYCATGPSYYYDANGSPTDYWGQGTLVTVSS VL: DIQMTQSSATLSVSPGETATLSCRASQSVSSHLVWYQQKPGQAPRLIIYGASTRATGIPVRFSGSRSGTEFTLTISSLQSEDFAIYYCQQYNNWPWTFGQGTKVEIK | binds
H1-Ab38 (antibody, V domains shown) VH: EVQLVESGGGVVQPGRSLRLSCAASGFTFSSNAMHWVRQAPGKGLEWVAVISSDGSSKYYADSVKGRFTISRDNSKNTLFLQMNSLRADDTAIYYCARRYDGFDYWGQGSLVTVSS VL: QSVLTQPASVSGSPGQSITISCTGTSSDVGSYNLVSWYQQHPGKAPKLMIYEVNKRPSGVSNRFSGSKSGNTASLTISGLQAEDEADYHCCSYAGSYTYVFGGGTKLTVL | binds
H1-Ab1 (antibody, V domains shown) VH: EVQLVQSGAEVKKPGASVKVSCKASGYIFTSYGISWVRLAPGQGLEWMGWISGYNSNTNYAQKFQGRVTVTADTSTSTAYMELRSLRSDDTAVYYCARDRAHILTGYHFDCWGQGTLVTVSS VL: DIQMTQSPLSLPVTLGQPASISCRSSQSLVYIDGNTYLNWFQQRPGQSPRRLIYKVSNRDSGVPDRFSGSGSGTDFTLKISSVEAEDVGVYYCMQGTHWPPYTFGQGTKVEIK | binds
H1-Ab2 (antibody, V domains shown) VH: EVQLVQSGAEVKRPGASVKVSCKASGYTFTSYGISWVRQAPGQGLEWMGWISAYNGNTNYAQKLQGRVIMTTDTSTSTAYMELRSLRSDDTAVYYCARDRAHILTGYHFDYWGQGTLVTVSS VL: not shown | binds
H1-Ab3 (antibody, V domains shown) VH: EVQLVESGAEVKRPGASVKVSCKASGYTFTSYGISWVRQAPGQGLEWMGWISAYNGNTNYAQKLQGRVIMTTDTSTSTAYMELRSLRSDDTAVYYCARDRAHILTGYHFDCWGQGTLVTVSS VL: DIVMTQSPGTLSLSPGERATLSCGASQSVTSSYLAWYQQKPGQAPRLLIYDAPSRATGIPDRFSGSGSGTDFTLTISRLEPEDFAVYYCQQYGSSHVITFGQGTDWRLN | binds
H1-Ab51 (antibody, V domains shown) VH: EVQLVESGPGLVKPSETLSLTCTVSGGSISSNTYYWGWIRQPPGKGLEWIETIYYSGSTYYNPSLKSRVTISVDTSKNQFSLKLSSVTAADSAVYYCARSYCGGGCNFDAFDIWGQGTVVTVSS VL: QSVLTQPASVSGSPGQSITISCTGSSSDVGGYNYVSWYQQHPGKAPKLMIFDVSNRPSGVSNRFSGSKSGNTASLTISGLQAEDEADYYCSSYTSNITLVFGGGTKLTVL | binds
H1-Ab16 (antibody, V domains shown) VH: EVQLVESGAEVKKPGSSVKVSCTASGGAFNSHTISWLRQTPGQGLEWMGRIIPILGMANYAQKFHGRVTITADISTNTAYMELSSLRSEDTAVYSCAGGTSRWFGDVEYWGQGSLVTVSS VL: EIVLTQSPLSLPVTLGQPASISCRSSQSLVFSDGNTYLSWFHQRPGQAPRRLIYKVSDRDSGVPDRFSGSGSGTDFTLKISRVEAEDVGVYYCMQGSHWPPSFGPGTKVEIK | binds
H1-Ab4 (antibody, V domains shown) VH: EVQLVESGGALRKPGASVRVSCRSSGYRFTSNGISWVRQAPGRGLEWMGWISANSGNTFYAQKFQGRVTMTTDTSASTAYVELRRLRPDDTAMYYCARDVHYRFDSWGQGTLVTVSS VL: QSVLTQPPSASGSPGQSVAISCTGSSSDVGGYDWVSWYQQYPGKGPKLIIYEVNKRPPGVPDRFSGSKSGNTASLTVSGLQTEDEADYYCSSYAGGSRVFGGGTKLTVL | binds
H1-Ab53 (antibody, V domains shown) VH: EVQLVESGLRLVKPSETLSVTCTVSGGSMSTTSYYWGWIRQPPGKALEWIGSIYYDGNSYYKPSLRSRFTMLVDTSKNQFSLKLTSVTAADTAVYYCARMSYMDYDFSTGYWNWFDPWGQGTLVTVSS VL: QSVLTQPASVSGSPGQSITISCTGTRRDVGSYRLVSWYQHHPGKAPKLMIYEGTKRPSGVSDRFSGSKSGNTASIIISGFQAEDEADYYCCSYAGSSTWVFGGGTRVTVL | binds
H1-Ab9 (antibody, V domains shown) VH: EVQLVESGAEVKKPGAPVKVSCKASGYTFTRYYIHWVRQAPGQGLEWMGWINPDSGDTKCAQRFQGRVTMTRDTSVSTAYMELRRLGSDDTALYYCARIQLRSDGFDLWGQGTLVTVSS VL: QSALTQPASVSGSPGQSITISCTGTSSDIGSYKFVSWYQQHPGKAPKVMIYEVTQRPSGVSNRFSGSKSGNTASLTISGLQAEDEADYYCCSYAGSSFWVFGGGTTLTVP | binds
H1-Ab18 (antibody, V domains shown) VH: EVQLVESGGGLLKPGGSLRLSCAASGFTFNNAWMSWVRQPPGKGLEWVGRIKSESDDETPDYAAPVKGRFDISRDDSKNMLYLQMSSLKTEDTAVYYCATDHSSHYYDRPDYWGQGTLVTVSS VL: QSVLTQSPSASASLGASVKLTCILSSGHSDYAIAWHQQQPEKGPRYLMKLNIDGSHSKGDGIPDRFSGSTSGAERYLTISSLQSEDEADYYCQTWDTGIHVFGGGTRLTVL | binds
H1-Ab26 (antibody, V domains shown) VH: EVQLVQSGGGLVQPGSSLRLSCAASGFTFSNFAMSWVRQAPGKGLEWVSTINAGSGSKDYANSVKGRFTISRDNTKNTLYLQMKSLRAEDTAVYYCAKDTGHTIFGVVRPYYNGMDVWGQGTTVTVSS VL: DNQMTQSPLSLPVTLGQPASISCRSSQSLVYSDGNTYLNWFQQRPGQSPRRLIYKVSNRDSGVPDRFSGSGSGTDFTLKISRVEAEDVGVYYCMQGTHPYTFGQGTKVEIK | binds
H1-Ab27 (antibody, V domains shown) VH: EVQLVQSGGGLVQPGSSLRLSCAASGFTFSNFAMSWVRQAPGKGLEWVSTINAGSGSKDYANSVKGRFTISRDNTKNTLYLQMKSLRAEDTAVYYCAKDTGHTIFGVVRPYYNGMDVWGQGTTVTVSS VL: EIVMTQSPGTLSLSPGERATLSCRASQSVSSSYLAWYQQKPGQAPRLLIYGASSRATGIPDRFSGSGSGTDFTLTITRLEPEDFAVYYCQQYGGSPMYTFGQGTKVEIK | binds
H1-Ab11 (antibody, V domains shown) VH: QVQLVQSGAEVKKPGSSVKVSCKASGVTFDTYAFSWVRQAPGQGLEWMGGISPIFTTTNYAQTFQGRVTITADKSTSTAYMELSSLISEDTAVYYCAKGGPTTGTPYYVFGLDVWGQGTMVTVSF VL: DIVMTQSPLSSPVTLGQPASISCRSSQSLVHSDGNTYLSWLHQRPGQPPRLLIYKISNRFSGVPDRFTGSGAGTDFTLKISRVEAEDVGVYYCMQATQFQTFGQGTKVEIK | binds
H1-Ab23 (antibody, V domains shown) VH: EVQLVESGGGLVKPGGSLRLSCAASGFTFSSYSMHWVRQAPGKGLEWISSISSTGNYIYYADSVKGRFTISRDNARNSLYAQLNSLRAEDTAVYYCATGVTSSYGGHPGYFDSWGQGTLVTVSS VL: DIRMTQSPSSLSASVGDRVTITCQASQDISKYLNWYQQKPGKAPKVLIYDASNLETGVPSRFSGSRSGTDFTFTISRLQPEDIGTYYCQQYDDPFLTFGGGTKVEIK | binds
H1-Ab8 (antibody, V domains shown) VH: EVQLVQSGAEVKKPGASVKVSCKASGYTFADYYIHWVRQAPGQGLEWMGWINPNSGDTNYAQKFQGRVTMTRDTSISTGDMELSRLRSDDTAVYYCARANRGGYFAWAFFDFWGQGTLVTVSS VL: EIVLTQSPGTLSLSPGERATLSCRASQSVSSRNLAWYQQKPGQAPRLLIYGASSRATGIPDRFSGSGSGTDFILSISRLEPEDFAVYYCQQYGSSPLTFGGGTKVEIK | binds
H1-Ab33 (antibody, V domains shown) VH: EVQLVESGGGLVQPGGSLRLSCAASGFTFSSYAMSWVRQAPGKGLEWVSGINAGGGSTFYADSVKGRFTISRGNSKNTLYLQMHSLRAEDTAIYYCAKDQGNAIFGLVIPSYYFDYWGQGTLVTVSS VL: not shown | binds
H1-Ab37 (antibody, V domains shown) VH: LVQLVESGGGLVQPGGSLRLSCAASGFTFSSYAMSWVRQAPGKGLEWVSGINAGGGSTFYADSVKGRFTISRDNSKNTLYLQMHSLRAEDTAIYYCAKDQGNAIFGLVIPSYYFDYWGQGTLVTVSS VL: not shown | binds
